This note sets out measurements from article PMC8636563.

Experiment [1] concerns the target Ubc9 A129K/K153R (yeast (Saccharomyces cerevisiae)) (UniProt P50623).
For experiment [2], the target named is Δ4C-Nse2 (ΔSIM2) (budding yeast (Saccharomyces cerevisiae)) (UniProt P38632).
For experiment [3], the target named is Nse2 1-267 (budding yeast (Saccharomyces cerevisiae)) (UniProt P38632).
The target of experiment [4] is Nse2 ΔLoop1-SIM1 (budding yeast (Saccharomyces cerevisiae)) (UniProt P38632).

For “ΔN18 Smt3 (from UniProt Q12306 19-101) (domain or fragment)”, the Kcat of single-turnover discharge of purified Ubc9 K153R~Smt3 K11C/D68R-Alexa488 thioester on cp53 by Nse2/Arm-Smc5, with against without 1.5-fold excess of non-conjugatable SUMOB, 30 °C in experiment [1] is 3 fold. In experiment [2], this substance registered a Kcat/KM of single-turnover SUMO conjugation on cp53 (0.5 to 8 µM) by Δ4C-Nse2 (ΔSIM2)/Arm-Smc5 with extra non-conjugatable Smt3, 2 °C of 0.007. Also, the Kcat/KM of single-turnover SUMO conjugation on cp53 (0.5 to 8 µM) by WT Nse2/Arm-Smc5 with extra non-conjugatable Smt3, 2 °C in experiment [3] amounted to 0.025.

Regarding “FL Smt3 (from UniProt Q12306 1-101) (natural protein)”, the multiple-turnover SUMO conjugation on cNse4 by Nse2 ΔLoop1-SIM1/Arm-Smc5 against WT-Nse2, 30 °C in experiment [4] was less than 90 % reduction.
